# Measured values: patent US20030022260
# Experiments:
# [1] = target: GAD-E2F-5/LexA-DP-1 in yeast (Mus musculus) (UniProt Q61502+Q08639); test: cell_activity; settings: yeast lacZ reporter
# [2] = tested on: HA-E2F-5/DP-1 in cells (Homo sapiens); test: cell_activity; settings: U2-OS CAT reporter; E2F-5 plus DP-1
# Chain of GAD-E2F-5/LexA-DP-1 in yeast (Mus musculus) (Q61502 whole entry, chain 1 of 2): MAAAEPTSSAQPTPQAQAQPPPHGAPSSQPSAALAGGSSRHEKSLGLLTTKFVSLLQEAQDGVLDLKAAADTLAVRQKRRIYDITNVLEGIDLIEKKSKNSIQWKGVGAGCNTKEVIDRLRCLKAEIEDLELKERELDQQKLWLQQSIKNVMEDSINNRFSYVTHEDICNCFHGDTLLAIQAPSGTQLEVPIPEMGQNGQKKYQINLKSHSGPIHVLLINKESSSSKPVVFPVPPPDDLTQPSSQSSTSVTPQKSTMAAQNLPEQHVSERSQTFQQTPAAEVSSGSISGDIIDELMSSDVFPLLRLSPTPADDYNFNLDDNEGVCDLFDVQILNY
# Chain of GAD-E2F-5/LexA-DP-1 in yeast (Mus musculus) (Q08639 whole entry, chain 2 of 2): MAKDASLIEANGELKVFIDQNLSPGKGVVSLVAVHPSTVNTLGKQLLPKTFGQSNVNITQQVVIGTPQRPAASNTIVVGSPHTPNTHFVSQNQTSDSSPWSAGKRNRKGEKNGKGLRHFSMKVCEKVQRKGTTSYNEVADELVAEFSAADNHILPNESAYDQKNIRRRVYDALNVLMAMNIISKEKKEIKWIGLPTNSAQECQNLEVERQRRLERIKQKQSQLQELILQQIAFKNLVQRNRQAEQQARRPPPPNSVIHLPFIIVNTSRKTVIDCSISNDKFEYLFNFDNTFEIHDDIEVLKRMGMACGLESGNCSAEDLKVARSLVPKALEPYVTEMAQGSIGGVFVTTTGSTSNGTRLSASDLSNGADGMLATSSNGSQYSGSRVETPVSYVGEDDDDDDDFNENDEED
Substance,activity (fold activation) [1],activity (fold activation) [2]
"p4xWT CYC1 reporter, four wild-type E2F sites",> 6,–
"E2F4-CAT reporter, four E2F sites",–,> 100
